Laboratory results reported in patent US20140087995A1 (published 2014).
Numbered stars: 1 amine (or outer) side, 2 acyl side, 3 side chain; on linkers, the order of the positions; unused ones are H or OH. Bridge positions count the residues as written; N and C are the ends. Square brackets hold non-standard residues; d marks the D form. Side chains are listed from the residue outwards. Ends that are not written are not given here. * marks the point of attachment. C20 diacid = O=C(O)CCCCCCCCCCCCCCCCCCC(=O)*; γGlu = O=C(O)[C@H](CCC(=O)[*:2])N[*:1]; C14 diacid = O=C(O)CCCCCCCCCCCCC(=O)*; AEEA = NCCOCCOCC(=O)O

T1: human calcitonin receptor (human, UniProt P30988 25-474)
T1 sequence (looked up): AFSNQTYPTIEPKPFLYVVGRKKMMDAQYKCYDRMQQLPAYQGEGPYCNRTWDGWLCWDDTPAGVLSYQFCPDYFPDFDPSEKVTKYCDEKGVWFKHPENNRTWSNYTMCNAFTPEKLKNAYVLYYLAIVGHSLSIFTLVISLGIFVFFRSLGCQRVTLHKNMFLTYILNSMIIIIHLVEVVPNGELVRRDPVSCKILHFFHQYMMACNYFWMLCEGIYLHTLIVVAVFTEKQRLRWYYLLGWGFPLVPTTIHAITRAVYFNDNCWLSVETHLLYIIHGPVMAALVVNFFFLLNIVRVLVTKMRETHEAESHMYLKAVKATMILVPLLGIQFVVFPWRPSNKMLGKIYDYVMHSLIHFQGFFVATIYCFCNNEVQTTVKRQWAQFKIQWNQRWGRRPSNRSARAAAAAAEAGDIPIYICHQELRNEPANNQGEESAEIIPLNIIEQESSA

T2: human calcitonin receptor (human, UniProt P30988 25-474)
T2 sequence (looked up): T1 sequence (looked up)

B1: N^ε1-[2-[2-[2-(19-carboxynonadecanoylamino)ethoxy]ethoxy]acetyl]-[Arg17,Pro21,Pro27,His34]-h-amylin (peptide)
peptide: K([AEEA-C20 diacid])CNTATCATQRLANFLRHSSPNFGAIPSSTNVGHNTY-NH2
modifications: disulfide 2-7; N-terminus assumed
SMILES: CC[C@H](C)[C@H](NC(=O)[C@H](C)NC(=O)CNC(=O)[C@H](Cc1ccccc1)NC(=O)[C@H](CC(N)=O)NC(=O)[C@@H]1CCCN1C(=O)[C@H](CO)NC(=O)[C@H](CO)NC(=O)[C@H](Cc1c[nH]cn1)NC(=O)[C@H](CCCNC(=N)N)NC(=O)[C@H](CC(C)C)NC(=O)[C@H](Cc1ccccc1)NC(=O)[C@H](CC(N)=O)NC(=O)[C@H](C)NC(=O)[C@H](CC(C)C)NC(=O)[C@H](CCCNC(=N)N)NC(=O)[C@H](CCC(N)=O)NC(=O)[C@@H](NC(=O)[C@H](C)NC(=O)[C@@H]1CSSC[C@H](NC(=O)[C@@H](N)CCCCNC(=O)COCCOCCNC(=O)CCCCCCCCCCCCCCCCCCC(=O)O)C(=O)N[C@@H](CC(N)=O)C(=O)N[C@@H]([C@@H](C)O)C(=O)N[C@@H](C)C(=O)N[C@@H]([C@@H](C)O)C(=O)N1)[C@@H](C)O)C(=O)N1CCC[C@H]1C(=O)N[C@@H](CO)C(=O)N[C@@H](CO)C(=O)N[C@H](C(=O)N[C@@H](CC(N)=O)C(=O)N[C@H](C(=O)NCC(=O)N[C@@H](Cc1c[nH]cn1)C(=O)N[C@@H](CC(N)=O)C(=O)N[C@H](C(=O)N[C@@H](Cc1ccc(O)cc1)C(N)=O)[C@@H](C)O)C(C)C)[C@@H](C)O
notes: also called compound 91
B2: N^ε1-[2-[2-[2-[[2-[2-[2-[[(4S)-4-carboxy-4-(19-carboxynonadecanoylamino)butanoyl]amino]ethoxy]ethoxy]acetyl]amino]ethoxy]ethoxy]acetyl]-[Arg17,Pro21,Pro27,His34 … (peptide)
peptide: K([AEEA-AEEA-γGlu-C20 diacid])CNTATCATQRLANFLRHSSPNFGAIPSSTNVGHNTY-NH2
modifications: disulfide 2-7; N-terminus assumed
SMILES: CC[C@H](C)[C@H](NC(=O)[C@H](C)NC(=O)CNC(=O)[C@H](Cc1ccccc1)NC(=O)[C@H](CC(N)=O)NC(=O)[C@@H]1CCCN1C(=O)[C@H](CO)NC(=O)[C@H](CO)NC(=O)[C@H](Cc1c[nH]cn1)NC(=O)[C@H](CCCNC(=N)N)NC(=O)[C@H](CC(C)C)NC(=O)[C@H](Cc1ccccc1)NC(=O)[C@H](CC(N)=O)NC(=O)[C@H](C)NC(=O)[C@H](CC(C)C)NC(=O)[C@H](CCCNC(=N)N)NC(=O)[C@H](CCC(N)=O)NC(=O)[C@@H](NC(=O)[C@H](C)NC(=O)[C@@H]1CSSC[C@H](NC(=O)[C@@H](N)CCCCNC(=O)COCCOCCNC(=O)COCCOCCNC(=O)CC[C@H](NC(=O)CCCCCCCCCCCCCCCCCCC(=O)O)C(=O)O)C(=O)N[C@@H](CC(N)=O)C(=O)N[C@@H]([C@@H](C)O)C(=O)N[C@@H](C)C(=O)N[C@@H]([C@@H](C)O)C(=O)N1)[C@@H](C)O)C(=O)N1CCC[C@H]1C(=O)N[C@@H](CO)C(=O)N[C@@H](CO)C(=O)N[C@H](C(=O)N[C@@H](CC(N)=O)C(=O)N[C@H](C(=O)NCC(=O)N[C@@H](Cc1c[nH]cn1)C(=O)N[C@@H](CC(N)=O)C(=O)N[C@H](C(=O)N[C@@H](Cc1ccc(O)cc1)C(N)=O)[C@@H](C)O)C(C)C)[C@@H](C)O
notes: also called compound 97
B3: N^ε1-[(4S)-4-carboxy-4-(13-carboxytridecanoylamino)butanoyl]-[Arg17,Pro21,Pro27,His34]-h-amylin (peptide)
peptide: K([γGlu-C14 diacid])CNTATCATQRLANFLRHSSPNFGAIPSSTNVGHNTY-NH2
modifications: disulfide 2-7; N-terminus assumed
SMILES: CC[C@H](C)[C@H](NC(=O)[C@H](C)NC(=O)CNC(=O)[C@H](Cc1ccccc1)NC(=O)[C@H](CC(N)=O)NC(=O)[C@@H]1CCCN1C(=O)[C@H](CO)NC(=O)[C@H](CO)NC(=O)[C@H](Cc1c[nH]cn1)NC(=O)[C@H](CCCNC(=N)N)NC(=O)[C@H](CC(C)C)NC(=O)[C@H](Cc1ccccc1)NC(=O)[C@H](CC(N)=O)NC(=O)[C@H](C)NC(=O)[C@H](CC(C)C)NC(=O)[C@H](CCCNC(=N)N)NC(=O)[C@H](CCC(N)=O)NC(=O)[C@@H](NC(=O)[C@H](C)NC(=O)[C@@H]1CSSC[C@H](NC(=O)[C@@H](N)CCCCNC(=O)CC[C@H](NC(=O)CCCCCCCCCCCCC(=O)O)C(=O)O)C(=O)N[C@@H](CC(N)=O)C(=O)N[C@@H]([C@@H](C)O)C(=O)N[C@@H](C)C(=O)N[C@@H]([C@@H](C)O)C(=O)N1)[C@@H](C)O)C(=O)N1CCC[C@H]1C(=O)N[C@@H](CO)C(=O)N[C@@H](CO)C(=O)N[C@H](C(=O)N[C@@H](CC(N)=O)C(=O)N[C@H](C(=O)NCC(=O)N[C@@H](Cc1c[nH]cn1)C(=O)N[C@@H](CC(N)=O)C(=O)N[C@H](C(=O)N[C@@H](Cc1ccc(O)cc1)C(N)=O)[C@@H](C)O)C(C)C)[C@@H](C)O

Each binder was assayed against T1, human calcitonin receptor (assay: cell-based or functional assay).

| Binder | hCTR funct. EC50 (pM) |
| --- | --- |
| B1 | 1480 pM |
| B2 | 11800 pM |
| B3 | 1090 pM |

Each binder was assayed against T2, human calcitonin receptor (assay: cell-based or functional assay).

| Binder | hCTR funct. EC50 (pM) |
| --- | --- |
| K([γGlu-C20 diacid])CNTATCATQRLAEFLRHSSPNFGAIPSSTNVGPETY-NH2 (disulfide 2-7 (inferred), Synthetic) | 841 pM |
| K([γGlu-C20 diacid])CNTATCATQRLAEFLRHSSPNFGAIPSSTNVGHETY-NH2 (disulfide 2-7 (inferred), Synthetic; also called compound 107) | 2540 pM |
| K([γGlu-γGlu-C20 diacid])CNTATCATQRLADFLRHSSPNFGAIPSSTNVGPRTY-NH2 (disulfide 2-7 (inferred), Synthetic; also called compound 130) | 7280 pM |
| K([γGlu-γGlu-C20 diacid])CNTATCATQRLA[dD]FLRHSSPNFGAIPSSTNVGSRTY-NH2 (disulfide 2-7 (inferred), Synthetic) | 100000 pM |
| K([γGlu-C20 diacid])CNTATCATQRLAEFLRHSSPNFGAIPSSTNVGPHTY-NH2 (disulfide 2-7 (inferred), Synthetic) | 1450 pM |
| K([γGlu-C20 diacid])CNTATCATQRLAEFLRHSSPNFGAIPSSTNVGSHTY-NH2 (disulfide 2-7 (inferred), Synthetic) | 5580 pM |
| K([γGlu-γGlu-C20 diacid])CNTATCATQRLAEFLRHSSPNFGAIPSSTNVGPHTY-NH2 (disulfide 2-7 (inferred), Synthetic) | 2830 pM |
| K([γGlu-γGlu-C20 diacid])CNTATCATQRLANFLRHSSPNFGAIPSSTPVGPRTY-NH2 (disulfide 2-7 (inferred), Synthetic) | 8660 pM |
| K([γGlu-γGlu-C20 diacid])CNTATCATQRLADFLRHSSPNFGAIPSSTNVGPETY-NH2 (disulfide 2-7 (inferred), Synthetic) | 843 pM |
| K([γGlu-C20 diacid])CNTATCATQRLAEFLRHSSPNFGAIPSSTNVGPRTY-NH2 (disulfide 2-7 (inferred), Synthetic) | 6380 pM |
| K([γGlu-γGlu-C20 diacid])CNTATCATQRLASFLRHSSPNFGAIPSSTNVGPETY-NH2 (disulfide 2-7 (inferred), Synthetic; also called compound 120) | 887 pM |
| K([γGlu-γGlu-C20 diacid])CNTATCATQRLAEFLRHSSPNFGAIPSSTNVGPNTF-NH2 (disulfide 2-7 (inferred), Synthetic) | 2140 pM |
| K([γGlu-γGlu-C20 diacid])CNTATCATQRLAEFLRHSSPNFGAIPSSTNVGRETY-NH2 (disulfide 2-7 (inferred), Synthetic) | 7430 pM |
| K([γGlu-γGlu-C20 diacid])CNTATCATQRLAEFLRHSSPNFGAIPSSTNVGHETY-NH2 (disulfide 2-7 (inferred), Synthetic) | 7050 pM |
| K([γGlu-γGlu-C20 diacid])CNTATCATQRLAEFLRHSSPNFGAIPSSTNVGPRTY-NH2 (disulfide 2-7 (inferred), Synthetic; also called compound 110) | 8160 pM |
